This data set deals with the molecule itself. Kind of data set: SEC. In general terms: Size exclusion chromatography separates by hydrodynamic size, large species first.

The term stoichiometry N denotes the number of molecules, sites or subunits per partner or assembly.

B1: Nucleoplasmin-M9 (other)
chain: MASTVSNTSKLEKPVSLIWGCELNEQDKTFEFKVEDDEEKCEHQLALRTVCLGDKAKDEFNIVEIVTQEEGAEKSVPIATLKPSILPMATMVGIELTPPVTFRLKAGSGPLYISGQHVAMEEDYSWAEEEDEGEAEGEEEEEEEEDQESFGNYNNQSSNFGPMKGGNFGGRSSGPYGGGGQYFAKPRNQGGYG
Regarding B1, the “stoichiometry N” value amounted to 10.

The values are drawn from publication PMC2173498 (The Journal of Cell Biology, 2002).
